From patent US20050282743A1, “Molecular interactions in cells” (Arbor Vita Corporation, priority 2001, published 2005)
Ends that are not written are not given here. Peptide text beside a SMILES is read from it. * marks the point of attachment. Biotin = O=C1N[C@H]2[C@H](CS[C@H]2CCCCC(=O)*)N1

Columns and labels:
Assay in all cases: G' assay (10 uM PL peptide), results of TABLE 7 and TABLE 12
Format in all cases: binding
[1] = molecular target: T1, PDZ protein (GST-PDZ fusion) (Homo sapiens, UniProt Q8TEW0); details: PDZ PAR3, PDZ Domain 3
T1 construct: made in house; host or cells: E. coli (DH5alpha, BL21 or JM109)
T1 sequence (Q8TEW0 whole entry, the tested form may be a part): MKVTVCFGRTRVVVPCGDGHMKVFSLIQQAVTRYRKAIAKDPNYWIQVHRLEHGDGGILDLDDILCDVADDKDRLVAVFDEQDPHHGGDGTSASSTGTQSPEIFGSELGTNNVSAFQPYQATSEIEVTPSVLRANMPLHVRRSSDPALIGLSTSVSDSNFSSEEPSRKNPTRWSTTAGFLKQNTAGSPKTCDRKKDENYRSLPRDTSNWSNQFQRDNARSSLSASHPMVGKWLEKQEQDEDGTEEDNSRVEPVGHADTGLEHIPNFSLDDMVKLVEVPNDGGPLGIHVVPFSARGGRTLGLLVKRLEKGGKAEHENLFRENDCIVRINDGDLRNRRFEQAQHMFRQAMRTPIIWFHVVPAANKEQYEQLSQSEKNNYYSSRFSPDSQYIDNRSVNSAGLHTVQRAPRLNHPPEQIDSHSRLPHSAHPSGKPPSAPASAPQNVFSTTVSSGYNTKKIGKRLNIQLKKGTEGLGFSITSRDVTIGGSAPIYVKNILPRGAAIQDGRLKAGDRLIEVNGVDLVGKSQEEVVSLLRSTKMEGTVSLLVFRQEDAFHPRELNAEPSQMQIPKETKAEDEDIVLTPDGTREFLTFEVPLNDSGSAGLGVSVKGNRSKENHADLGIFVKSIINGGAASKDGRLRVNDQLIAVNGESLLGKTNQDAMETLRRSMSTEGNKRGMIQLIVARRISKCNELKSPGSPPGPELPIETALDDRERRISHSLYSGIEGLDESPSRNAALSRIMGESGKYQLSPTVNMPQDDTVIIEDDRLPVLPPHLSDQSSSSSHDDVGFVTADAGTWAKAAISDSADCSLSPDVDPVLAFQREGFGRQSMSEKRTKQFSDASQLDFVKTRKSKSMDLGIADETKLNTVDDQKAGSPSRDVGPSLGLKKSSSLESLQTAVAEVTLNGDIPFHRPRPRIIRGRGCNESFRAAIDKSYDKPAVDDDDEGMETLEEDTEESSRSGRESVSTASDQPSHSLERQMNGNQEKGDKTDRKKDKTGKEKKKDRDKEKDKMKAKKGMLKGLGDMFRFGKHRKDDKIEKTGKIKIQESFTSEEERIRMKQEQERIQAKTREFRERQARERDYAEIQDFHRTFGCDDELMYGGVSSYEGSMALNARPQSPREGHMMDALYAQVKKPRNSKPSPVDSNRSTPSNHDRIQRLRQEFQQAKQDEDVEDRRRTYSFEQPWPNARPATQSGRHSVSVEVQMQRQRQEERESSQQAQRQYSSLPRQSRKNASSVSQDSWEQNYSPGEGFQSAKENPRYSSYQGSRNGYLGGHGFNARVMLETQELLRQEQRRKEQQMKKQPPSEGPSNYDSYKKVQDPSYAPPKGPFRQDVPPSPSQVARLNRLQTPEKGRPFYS
Method in brief: (§1)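 Same steps as the G-zero format, apart from a peptide concentration of 10 uM in place of 20 uM in step 2. Amino-terminally biotinylated PL peptides bind GST-PDZ fusions, and retained peptide is quantified by 450 nm absorbance.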

[2] = molecular target: T2, PDZ protein (GST-PDZ fusion) (Homo sapiens, UniProt Q9Y2H9); details: PDZ KIAA0973, PDZ Domain 1
T2 construct: made in house; host or cells: E. coli (DH5alpha, BL21 or JM109)
T2 sequence (Q9Y2H9 whole entry, the tested form may be a part): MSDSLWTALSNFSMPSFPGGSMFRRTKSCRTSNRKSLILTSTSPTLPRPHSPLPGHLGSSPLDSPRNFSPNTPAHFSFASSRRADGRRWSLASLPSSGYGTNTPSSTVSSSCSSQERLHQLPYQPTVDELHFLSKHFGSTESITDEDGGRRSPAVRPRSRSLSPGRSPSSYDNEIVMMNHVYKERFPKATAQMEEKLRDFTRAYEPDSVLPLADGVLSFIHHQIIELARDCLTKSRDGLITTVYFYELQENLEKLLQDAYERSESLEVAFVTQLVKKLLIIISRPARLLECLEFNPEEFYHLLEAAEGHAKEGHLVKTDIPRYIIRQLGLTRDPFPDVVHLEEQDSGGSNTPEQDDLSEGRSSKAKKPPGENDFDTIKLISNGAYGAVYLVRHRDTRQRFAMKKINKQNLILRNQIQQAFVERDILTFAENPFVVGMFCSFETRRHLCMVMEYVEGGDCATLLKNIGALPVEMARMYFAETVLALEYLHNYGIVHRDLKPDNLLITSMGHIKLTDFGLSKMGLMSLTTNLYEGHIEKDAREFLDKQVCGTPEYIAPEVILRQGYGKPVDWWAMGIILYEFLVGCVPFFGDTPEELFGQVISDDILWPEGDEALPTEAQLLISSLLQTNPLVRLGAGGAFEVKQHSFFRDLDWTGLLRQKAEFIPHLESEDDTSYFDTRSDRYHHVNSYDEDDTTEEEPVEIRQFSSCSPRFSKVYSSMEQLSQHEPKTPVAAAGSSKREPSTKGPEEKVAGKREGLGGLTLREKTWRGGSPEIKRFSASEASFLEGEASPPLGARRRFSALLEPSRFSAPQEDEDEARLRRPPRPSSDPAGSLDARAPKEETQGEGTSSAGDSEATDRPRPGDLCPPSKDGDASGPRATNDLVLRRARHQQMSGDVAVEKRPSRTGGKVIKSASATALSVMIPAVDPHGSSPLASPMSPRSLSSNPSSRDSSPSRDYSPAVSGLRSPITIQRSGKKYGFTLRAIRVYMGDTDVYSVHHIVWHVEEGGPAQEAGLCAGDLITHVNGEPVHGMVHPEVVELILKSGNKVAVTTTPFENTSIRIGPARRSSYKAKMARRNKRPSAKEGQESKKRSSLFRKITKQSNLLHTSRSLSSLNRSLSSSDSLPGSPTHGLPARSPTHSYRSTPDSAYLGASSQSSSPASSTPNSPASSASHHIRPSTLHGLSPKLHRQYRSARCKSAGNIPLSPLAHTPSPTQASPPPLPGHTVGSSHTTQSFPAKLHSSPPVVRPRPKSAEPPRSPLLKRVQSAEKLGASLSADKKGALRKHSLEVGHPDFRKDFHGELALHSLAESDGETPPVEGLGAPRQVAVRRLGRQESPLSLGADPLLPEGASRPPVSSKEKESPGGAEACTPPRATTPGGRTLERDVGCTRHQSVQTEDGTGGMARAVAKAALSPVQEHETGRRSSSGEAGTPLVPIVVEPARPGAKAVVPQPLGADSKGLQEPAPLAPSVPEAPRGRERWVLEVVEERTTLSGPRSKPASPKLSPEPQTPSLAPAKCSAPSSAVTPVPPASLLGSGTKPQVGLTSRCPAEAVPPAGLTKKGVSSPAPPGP
Method in brief: as §1

[3] = molecular target: T3, PDZ protein (GST-PDZ fusion) (Homo sapiens, UniProt Q5T2W1)
T3 construct: made in house; host or cells: E. coli (DH5alpha, BL21 or JM109)
T3 sequence (Q5T2W1 1-519): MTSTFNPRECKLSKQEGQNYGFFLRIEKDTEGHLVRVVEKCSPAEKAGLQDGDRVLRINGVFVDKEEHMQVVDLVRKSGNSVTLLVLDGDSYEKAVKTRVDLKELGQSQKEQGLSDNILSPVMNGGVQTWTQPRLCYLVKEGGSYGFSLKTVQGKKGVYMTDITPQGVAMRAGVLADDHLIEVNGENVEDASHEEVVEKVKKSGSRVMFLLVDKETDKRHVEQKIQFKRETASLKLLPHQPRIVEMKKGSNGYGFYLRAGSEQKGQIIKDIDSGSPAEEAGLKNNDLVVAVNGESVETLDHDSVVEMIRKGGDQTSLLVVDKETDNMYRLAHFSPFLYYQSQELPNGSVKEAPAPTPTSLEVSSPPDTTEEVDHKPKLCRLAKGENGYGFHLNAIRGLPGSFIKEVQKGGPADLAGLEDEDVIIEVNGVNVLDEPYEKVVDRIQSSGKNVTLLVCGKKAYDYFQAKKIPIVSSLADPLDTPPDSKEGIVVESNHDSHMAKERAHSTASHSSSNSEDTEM
Method in brief: as §1

[4] = molecular target: T4, PDZ protein (GST-PDZ fusion) (Homo sapiens, UniProt Q9Y3R0)
T4 construct: made in house; host or cells: E. coli (DH5alpha, BL21 or JM109)
T4 sequence (Q9Y3R0 1-1128): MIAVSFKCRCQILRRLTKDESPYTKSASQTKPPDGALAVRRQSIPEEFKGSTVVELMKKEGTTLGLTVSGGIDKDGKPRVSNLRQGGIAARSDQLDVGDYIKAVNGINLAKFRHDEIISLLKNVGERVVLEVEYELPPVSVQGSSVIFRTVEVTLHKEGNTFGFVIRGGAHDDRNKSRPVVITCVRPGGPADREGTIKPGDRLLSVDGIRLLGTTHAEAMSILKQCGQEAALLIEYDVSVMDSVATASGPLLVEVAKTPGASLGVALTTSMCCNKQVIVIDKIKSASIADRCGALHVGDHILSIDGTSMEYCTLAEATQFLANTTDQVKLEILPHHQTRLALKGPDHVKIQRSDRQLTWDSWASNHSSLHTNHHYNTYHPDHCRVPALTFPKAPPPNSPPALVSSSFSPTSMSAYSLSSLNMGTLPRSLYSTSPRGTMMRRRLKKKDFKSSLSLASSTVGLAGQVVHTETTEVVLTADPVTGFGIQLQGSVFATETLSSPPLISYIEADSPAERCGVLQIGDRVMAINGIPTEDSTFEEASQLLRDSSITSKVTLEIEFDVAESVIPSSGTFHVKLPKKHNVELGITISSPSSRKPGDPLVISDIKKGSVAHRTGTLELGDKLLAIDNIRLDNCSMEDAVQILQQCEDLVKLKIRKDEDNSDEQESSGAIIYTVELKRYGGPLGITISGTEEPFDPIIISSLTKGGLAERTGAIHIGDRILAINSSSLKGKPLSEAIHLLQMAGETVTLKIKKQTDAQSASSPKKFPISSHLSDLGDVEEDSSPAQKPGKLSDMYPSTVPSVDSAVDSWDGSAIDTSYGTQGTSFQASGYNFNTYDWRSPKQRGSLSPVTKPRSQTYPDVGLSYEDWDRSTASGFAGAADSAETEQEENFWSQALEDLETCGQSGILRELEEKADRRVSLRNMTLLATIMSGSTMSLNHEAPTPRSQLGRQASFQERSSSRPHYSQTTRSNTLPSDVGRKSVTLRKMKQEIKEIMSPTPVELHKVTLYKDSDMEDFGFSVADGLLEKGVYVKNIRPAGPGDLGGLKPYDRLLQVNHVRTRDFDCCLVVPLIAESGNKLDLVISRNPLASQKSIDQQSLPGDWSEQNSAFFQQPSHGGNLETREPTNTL
Method in brief: as §1

Row | Compound | Classification [1] | Classification [2] | other results
1 | VHDAESSDEDGYDWGPATDL (Biotin-VHDAESSDEDGYDWGPATDL) [zona occludens 3 (ZO-3)] | 1 (A450 nm 0-1) | 2 (A450 nm 1-2) | 
2 | CC[C@H](C)[C@H](NC(=O)[C@H](Cc1ccc(O)cc1)NC(=O)[C@H](CC(C)C)NC(=O)[C@H](CCC(N)=O)NC(=O)[C@H](Cc1c[nH]cn1)NC(=O)[C@H](CO)NC(=O)[C@H](C)NC(=O)[C@H](CC(C)C)NC(=O)[C@@H](NC(=O)[C@H](CC(=O)O)NC(=O)[C@H](CCSC)NC(=O)[C@H](Cc1ccccc1)NC(=O)[C@@H]1CCCN1C(=O)[C@H](CCCNC(=N)N)NC(=O)[C@@H](NC(=O)[C@H](CC(C)C)NC(=O)[C@H](CC(N)=O)NC(=O)[C@H](CC(=O)O)NC(=O)[C@@H](NC(=O)[C@H](CO)NC(=O)CCCC[C@@H]1SC[C@@H]2NC(=O)N[C@@H]21)[C@@H](C)O)C(C)C)[C@@H](C)O)C(=O)O [presenilin-2] (Biotin-STDNLVRPFMDTLASHQLYI-OH; C-terminus assumed) | 5 (A450 nm of 4 more than 2× repeated) |  | 
3 | ARHRVTSYTSSSVNVSSNL (Biotin-ARHRVTSYTSSSVNVSSNL) [IL-8RB] |  |  | Classification ([3]; PDZ PDZK1, PDZ Domain 2, 3, 4): 1 (A450 nm 0-1)
4 | KTMPAATYRLLTGQEQPVYL (Biotin-KTMPAATYRLLTGQEQPVYL) [MINT-3] | 1 (A450 nm 0-1) | 2 (A450 nm 1-2) | 
5 | TQGFPGPATWRRISSLESEV |  | 1 (A450 nm 0-1) | 
6 | CC(C)C[C@H](NC(=O)[C@H](CCCNC(=N)N)NC(=O)CNC(=O)CNC(=O)[C@H](CCCNC(=N)N)NC(=O)[C@H](C)NC(=O)[C@@H]1CCCN1C(=O)[C@H](CCCNC(=N)N)NC(=O)CNC(=O)CNC(=O)[C@@H](NC(=O)[C@H](C)NC(=O)CCCC[C@@H]1SC[C@@H]2NC(=O)N[C@@H]21)C(C)C)C(=O)N[C@@H](CCC(N)=O)C(=O)NCC(=O)N[C@@H](CCCNC(=N)N)C(=O)N[C@@H](CCCNC(=N)N)C(=O)N[C@@H](CCC(N)=O)C(=O)N[C@H](C(=O)N[C@@H](CCC(N)=O)C(=O)N[C@H](C(=O)O)C(C)C)[C@@H](C)O [HPV E6 58 (modified)] (Biotin-AVGGRPARGGRLQGRRQTQV-OH; C-terminus assumed) |  | 2 (A450 nm 1-2) | Classification ([3]; PDZ PDZK1, PDZ Domain 2, 3, 4): 1 (A450 nm 0-1)
7 | KTMPAAMFRLLTGQETPLYI (Biotin-KTMPAAMFRLLTGQETPLYI) [MINT-2] | 5 (A450 nm of 4 more than 2× repeated) |  | Classification ([3]; PDZ PDZK-1, PDZ Domain 4): 1 (A450 nm 0-1)
8 | A2AC_HUMAN (Modified) (Biotin-DFRPSFKHILFRRARRGFRQ; not fully specified) |  | 3 (A450 nm 2-3) | Classification ([4]; PDZ GRIP1, PDZ Domain 5): 1 (A450 nm 0-1)
9 | CC[C@H](C)[C@H](NC(=O)[C@H](CCC(N)=O)NC(=O)[C@@H](NC(=O)[C@H](Cc1c[nH]cn1)NC(=O)[C@H](CCC(N)=O)NC(=O)[C@H](CC(=O)O)NC(=O)[C@H](CCC(=O)O)NC(=O)[C@H](CC(=O)O)NC(=O)[C@H](Cc1ccccc1)NC(=O)[C@@H]1CCCN1C(=O)[C@H](CCC(=O)O)NC(=O)[C@H](CC(N)=O)NC(=O)[C@H](CCC(=O)O)NC(=O)[C@@H]1CCCN1C(=O)[C@H](CC(=O)O)NC(=O)[C@H](CO)NC(=O)[C@H](CC(=O)O)NC(=O)CCCC[C@@H]1SC[C@@H]2NC(=O)N[C@@H]21)[C@@H](C)O)C(=O)N[C@H](C(=O)N[C@@H](CCCCN)C(=O)N[C@H](C(=O)O)C(C)C)[C@@H](C)O [PTEN] |  |  | Classification ([4]; PDZ GRIP1, PDZ Domain 3): 1 (A450 nm 0-1)
10 | CC[C@H](C)[C@H](NC(=O)[C@H](C)NC(=O)[C@H](CC(C)C)NC(=O)[C@H](Cc1c[nH]c2ccccc12)NC(=O)[C@H](Cc1c[nH]cn1)NC(=O)[C@H](CCC(N)=O)NC(=O)[C@H](CC(C)C)NC(=O)[C@H](CCC(N)=O)NC(=O)[C@H](Cc1ccccc1)NC(=O)[C@H](CCC(N)=O)NC(=O)[C@H](CCCNC(=N)N)NC(=O)[C@@H](NC(=O)[C@H](CC(=O)O)NC(=O)[C@H](CCCNC(=N)N)NC(=O)[C@H](CCC(N)=O)NC(=O)[C@H](C)NC(=O)[C@@H](NC(=O)[C@H](CC(C)C)NC(=O)[C@H](Cc1c[nH]cn1)NC(=O)[C@H](Cc1c[nH]cn1)NC(=O)CCCC[C@@H]1SC[C@@H]2NC(=O)N[C@@H]21)C(C)C)[C@@H](C)CC)C(=O)O [noradrenaline transporter] (Biotin-HHLVAQRDIRQFQLQHWLAI-OH; C-terminus assumed) | 4 (A450 nm 3-4) |  | Classification ([4]; PDZ GRIP1, PDZ Domain 6): 2 (A450 nm 1-2)
11 | LNETTETQRTLLNGDLQTSI (Biotin-LNETTETQRTLLNGDLQTSI) [SSTR2 (somatostatin recepor 2)] |  |  | Classification ([4]; PDZ GRIP1, PDZ Domain 7): 1 (A450 nm 0-1)

Continued, in another order:

Row | Classification [1] | Classification [2] | Compound | other results
12 | 1 (A450 nm 0-1) |  | PYSELNYETSHYPASPDSWV (Biotin-PYSELNYETSHYPASPDSWV) [catenin - delta 2] | 
13 | 2 (A450 nm 1-2) |  | A2AA_HUMAN (modified) (Biotin-HDFRRAFKKILARGDRKRIV; not fully specified) | 
14 | 5 (A450 nm of 4 more than 2× repeated) |  | CC[C@H](C)[C@H](NC(=O)[C@H](Cc1ccc(O)cc1)NC(=O)[C@@H](NC(=O)[C@@H]1CCCN1C(=O)[C@H](CCC(N)=O)NC(=O)[C@H](CCC(=O)O)NC(=O)[C@H](CCC(N)=O)NC(=O)[C@H](C)NC(=O)[C@@H](NC(=O)[C@H](CC(C)C)NC(=O)[C@H](CC(C)C)NC(=O)[C@H](CCCNC(=N)N)NC(=O)[C@H](Cc1ccc(O)cc1)NC(=O)[C@H](CCSC)NC(=O)[C@H](C)NC(=O)[C@H](C)NC(=O)[C@@H]1CCCN1C(=O)[C@H](CCSC)NC(=O)[C@@H](NC(=O)[C@H](CCCCN)NC(=O)CCCC[C@@H]1SC[C@@H]2NC(=O)N[C@@H]21)[C@@H](C)O)[C@@H](C)O)C(C)C)C(=O)O [MINT-1] (Biotin-KTMPAAMYRLLTAQEQPVYI-OH; C-terminus assumed) | Classification ([3]; PDZ PDZK-1, PDZ Domain 4): 1 (A450 nm 0-1)
15 | 1 (A450 nm 0-1) | 2 (A450 nm 1-2) | CC(C)C[C@H](NC(=O)[C@H](CC(=O)O)NC(=O)[C@H](CO)NC(=O)[C@H](CCC(=O)O)NC(=O)CNC(=O)[C@H](Cc1ccc(O)cc1)NC(=O)[C@H](CC(C)C)NC(=O)[C@H](C)NC(=O)[C@H](CO)NC(=O)[C@H](CO)NC(=O)[C@H](Cc1ccccc1)NC(=O)[C@H](C)NC(=O)[C@H](C)NC(=O)[C@H](Cc1ccc(O)cc1)NC(=O)[C@H](CC(=O)O)NC(=O)[C@H](CC(C)C)NC(=O)[C@H](C)NC(=O)CNC(=O)[C@@H]1CCCN1C(=O)[C@@H](NC(=O)CCCC[C@@H]1SC[C@@H]2NC(=O)N[C@@H]21)C(C)C)C(=O)O [a-actinin 2] (Biotin-VPGALDYAAFSSALYGESDL-OH; C-terminus assumed) | 
16 | 3 (A450 nm 2-3) |  | ELLQFCRTPNPALKNGQYWV (Biotin-ELLQFCRTPNPALKNGQYWV) | Classification ([4]; PDZ GRIP1, PDZ Domain 5): 1 (A450 nm 0-1); Classification ([4]; PDZ GRIP1, PDZ Domain 7): 5 (A450 nm of 4 more than 2× repeated)
17 |  | 1 (A450 nm 0-1) | ALVLIAFCIIRRRPSAYQAL (Biotin-ALVLIAFCIIRRRPSAYQAL) [CD68] | Classification ([4]; PDZ GRIP1, PDZ Domain 6): 1 (A450 nm 0-1)
